# Reference: the DeepSol protein solubility set
# Experiment: soluble on expression in E. coli; label from the status in PepcDB or PDB records
row,Sequence,soluble on expression in E. coli
1,MASGIRCFRLLHPAFRSYHAALTRPVSEVSMKTVSGRQHGHRQYSAYPAVPVRHFATKKAKAKGKGQPQARVTVNRALVEDIISLEEVDEDMKSVVEALKDNFNKTLNIRTAPGSLDHITVVTADGKVALNQIGQISMKSPQVILVNMASFPECTAAAIKAIRESGMNLNPEVEGTLIRVPIPKVTREHREMLVKLAKQNTNKAKENLRKVRTNAMNKLKKSKDKTSEDTIRLIEKQISQMADDTVAELDQHLAAKTKELLG,soluble
2,MGSDKIHHHHHHLTWPEASKAASENGSTLVWPFGACEQHGPHLPLITDTFFAENILIKTLNRLPENMPIWMMPSQSIGFSPEHQAFPGTLSLSADVLISMVTDVGQQIASMGFNRLVFFNAHGGQIGLLQAVSRQLRIQCPSIAVLPCFLWSGVPGLDQLLPEKEVEEGLHAALAETSLMLHMARDLVRNDSYLEIKNVDKQIVTTPKGWSLEGASPCAWLTEDLSSSGVIGDASSSNSELGAALENALVDHWIALFTSLLESDWPPIRSERPVSSS,not soluble
3,SRLLKTDLLEDVFNVENESFMQETELKENEYSVNLRTRFWFRGRAYDGWINLVNPFRATMVLGTPGSGKSYAIINQYIKQTIEKGYSLFLYDFKYPDLSEIAYNHLLAHLDGYKVKPKFYVINFDNPRESHRCNPIHPDFMTDISDAYESAYTIMLNLNRTWISKQGDFFVESPIILLASIIWYLKIYKNGKYCTFPHAIEFLNRKYADIFPILTSYPELENYLSPFMDAWESSAVEQLQGQIASAKIPLSRMISPALYWVMTADDFTLDINNPEEPKVLVVGNNPDRQGIYGAALGLYNSRIVKLINKKKRLKSAVIIDELPTIYMRGLDNLIATARSNKVAVMLGFQDFSQLKRDYGDKESAVICNTVGNVFAGQVVAETAKTLSERFGKVLQKRQNMTINRNETSVSINTQMDSLIPASKISNLTQGMFVGAVADNFDERIEQKIFHAEIVVDNEQVRRETARYVKIPQIIDFTDKDGNDTMQQQIDANYYRIKSEVRQIVADEIGRIKADPELSHLIKDK,not soluble
4,MAHHHHHHMILKEETVLRKTNAENLAAVRNLNLWGEGLTDVSIVSRLPRIEVLALAANKLTTLSPFAACTQLEELYLRRNNVASMLEIKYLRHLPKLHTLWLMDNPCARHPHYRQIVILCCRHLRHLDETEVSEKERAEAEKLLPEGMLQEMLESESAEAAVGTANKAQLQNRTPVSERKQPMGEVVQGGAIHETGAGRERGHRVTSSDTSGRGPSSAPERRQGSADDGLAQTAVQVQRAMFSSIMALVPELAVQTIEALQKELAEELCRRGKRLPPVVRDRT,not soluble
5,MNTLLSLMNSIEQEARTIYDSYDAKKKALADKKEEELKQLFLEYEQETQLLLEAKREVFFEANRQEQKASKKRLATQQLALHAILEEHKLTVVRELVDKVVETYGH,not soluble
6,LRSVFVSGFPRGVDSAQLSEYFLAFGPVASVVMDKDKGVFAIVEMGDVGAREAVLSQSQHSLGGHRLRVRPREQKEFQSPASKSPKG,soluble
7,GSHMVPISFVFNRFPRMVRDLAKKMNKEVNFIMRGEDTELDRTFVEEIGEPLLHLLRNAIDHGIEPKEERIAKGKPPIGTLILSARHEGNNVVIEVEDDGRGIDKEKIIRKAIEKGLIDESKAATLSDQEILNFLFVPGFSTKEKVSEVSGRGVGMDVVKNVVESLNGSISIESEKDKGTKVTIRLPLTLAIIQALLVKVNNLVYAIPIANIDTILSISKEDIQRVQDRDVIVIRGEVIPVYRLWEVLQIEHKEELEEMEAVIVRVGNRKYGIVVDDLLGQDDIVIKSLGKVFSEVKEFSGAAILGDGSIALIINVSGIV,soluble
8,MEQKQRRFTKNIFVLDVTAKTLCGAIAKLSSQPYCQIKIGRVVAFKPVKNPEPKGYVLNVPGPGAYRIQDGQDIISLMLTPHGVEATTERWEEWKFEGVSVTPMATRVQYNGVMVDAEIKYCKGMGIVQPYMRNDFDRNEMPDLPGVMRSNYDIRELRQKIKNERESAPRLQVHSVARPGSENLYPQ,soluble
9,MGSDKIHHHHHHMKLIAVGDNVVDYYQDQETFYPGGNALNVAVLAKRLGHESSYIGIVGNDEAAAHLLNVLKLEQVNADYIRQAHGENGMAIVTLDEQGDRIFVRSNKGGIQSRLRLAFQEKDVSFISGHDLLHTSVYSRLENDLPQLCGLVPVSFDFSTNREDDYLRRVCPYVTYAFFSGSDLSESECGELAKTAHGYGAKMVCMTRGGQGAILSAGDRVYHQPIVEADIIDTLGAGDSFIAGFLTAFCVKQDITYALRQAAETAAKTCGVYGAFGYGYPYRLEDGGSSEKTRIL,not soluble
10,GPGSMQSASSRVPRKPAAASNLGKPSSSGRFTKPNRPQPTSSFSKTAQPDMTGRYGTSTALVASTAASHFTAGARGQSTPFVGLADRTGQEGSVFGLRAPQNDATGAAAHTKTRQAARTKVVDDASTPVVVVGPERDSVPFRLCCEALAEGCVQTYMHLFELAHRDPVCVDTLSRKFFNVPDDRLAWVQQQLSAVEVLRRQSEFEQVFTHCEQLANYFEKEGDYAEAAWYHEMVLHYMMESLDRTLEQRARHVYATFQERQGHLEEAAALYDAMYRLAVALRDEATLQDASCCLVRVHQALGETLKFSDPAAAARHYATAAEAAVRSKNVVDEGSAYSALGDVSEARGDLPLALKYQRSCRAVAQQNDLKPQECRATLRVADLEERLGLKLEASTTLHEALQLAKELGAPRQLCIATMQLGEAYRSRNQEGEALQCFDESFAAAVEAGDQELIDTVRIAMGFARGDYYLTHAYGGKGYLHLVYTDIRAQLAWMSGGTL,not soluble
11,MGSDKIHHHHHHMIVTEYELLVCLAEELNMRKSAEKLFLSQPALSQRLQTIESRWNTKIFIRTQKGLLLTPEGEAIVRHASSVIEREHTIQEKLEAMEGVVRGTLRIACASVVAQMWLPRVLKAFSRTYPNVQISLVTGWSSEVTQQLAAGNVHIGIVRGSSTWKSVQKPLFNDKLILVDTEITKIEEVFQTNRPFIQFRSDSNYYQVIQDYWQRNFGKMPRQAMLMDQMETSRQMALNGIGFAILPEVTMIGYTDKINKIPLTEKDGSILSRETNLLTYEQSLSLPQVKAFLEITDKFLEQVK,not soluble
12,MAAFNDTLRAEIEEKKEDSVSERTTRNGKILNAKDEPEFGMNITPTTLFFKYPIGGIGYSFFTVTNTTSEKQAFKVKSSDNTWFRSKPSVGFIKSGEKVHVRVTFNSPDAGKERPERGSDNKNHVAIFHVAAGDAKTYKEAFAKKAADGVHHFFARHLAEPGAQVDKEADEKAPNGA,soluble
13,MEIRVKCRCGEEECSEWAIVELQGVVETQASFQGSIQNLEIGRLCHSDSSQGTYTFTVGYHELVGSKVTLKKPLLVLKKLQFDEVSGKATELEVVGIIRTKILFKTRPKPLISGNNNLSLFCS,not soluble
14,LRANKPVFKNAGATLHDIGDGIVNLEFHTKMNTLGGEVVDAINRSIGIAEKDFQGIVIGNDGANFSAGANLALVLMYAIEQEYDEIDFMIRAFQNTMMRARYSSIPVVVAPHNLTLGGGCEMTLHADHVQAFAETYIGLVEFGVGLIPAGGGTKEFTLRVSDSFEDGDIQVNNLKNMYMHIATAKVATSAEEARSMGILRKSDGITLNRSRLIADAKAAAISLAEAG,not soluble
15,MKTQVVINAKIYTGQEVVENGFIRYAETIKEIGLMAQYVSQENETVLDAAGKIVIPGMIDVHIHGGYDIDAMDANSDGLVTLGKEMLKEGVTTYFPTTMTQAPEAIEAALHAAKEAKEKGAHFEYIHLEGPYVSKKRAGAQPLEHIVPANIEQFKQWQEASGNLIKLVTYAPEEEGALEFEQYLAETGVVGTMGHTDAIDAQLKNRNITHATHLYNQMRGLHHREPGVVGHVLLNPDVMVEVITDGIHIHPDMVKLAYKLKGPKKVSVITDAMRAKGLEDGLYELGGQPVHVKDGSARLEDGTLAGSILKMDQAFRNVIEFTGCSIEDAVLMTSVNQAEEFGLNNKGALAVGKDADFVVMNEDLHVYDTVRLGIHMKEGK,not soluble
